The record followed here is US20150344570A1 (published 2015).

In one assay the target is T1, FcγRIa (human, UniProt P12314 16-292).
T1 construct: extracellular domain; Soluble extracellular domain with C-terminal His tag, used as analyte; also called FcgRI; CD64; not shown: His tag at the C terminus
In words: SPR (Biacore), captured antibody, FcγR as analyte, relative binding. The protocol:
(§1) The heterodimerized antibodies He Abs in which one of the H chains was introduced with an alteration were assayed for their binding activities to each activating FcγR and inhibitory FcγR according to the method described in Example 4. […] The activating FcγRs in FIGS. 26, 27, 28, and 29 are FcγRIa, FcγRIIa (R), FcγRIIa (H), and FcγRIIIa, respectively.
(§2) Analysis of interaction between objective antibody and the FcγR was carried out using Biacore T100 (GE Healthcare). HBS-EP+ (GE Healthcare) was used as the running buffer, and the measurement temperature was set to 25° C. Chips produced by immobilizing the antigen peptide by the amine coupling method to a Series S Sencor Chip CM5 (GE Healthcare), or alternatively, chips produced by allowing preliminarily biotinylated antigen peptides to interact with and immobilize onto a Series S Sensor Chip SA (certified) (GE Healthcare) were used. Antibodies of interest were captured onto an antigen peptide-immobilized chip, and allowed to interact to each FcγR diluted with running buffer. To regenerate and repeatedly use the chip, the antibodies captured on the chip were washed off by reacting 10 mM glycine-HCl, pH 1.5.
For orientation: Surface plasmon resonance follows binding to a sensor surface in real time, without labels.

Another assay concerns the target T2, FcγRIIb (human, UniProt P31994 43-217).
T2 construct: extracellular domain; Soluble extracellular domain with C-terminal His tag, used as analyte; also called FcgRIIb; CD32B; not shown: His tag at the C terminus
T2 sequence (looked up): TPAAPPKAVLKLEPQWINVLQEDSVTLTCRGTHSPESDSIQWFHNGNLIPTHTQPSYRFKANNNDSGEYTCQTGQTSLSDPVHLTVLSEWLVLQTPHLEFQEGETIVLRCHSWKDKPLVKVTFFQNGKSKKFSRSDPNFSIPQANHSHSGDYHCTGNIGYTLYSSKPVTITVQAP
Described as above. The protocol: as §1, §2

T1 sequence (P12314 16-292): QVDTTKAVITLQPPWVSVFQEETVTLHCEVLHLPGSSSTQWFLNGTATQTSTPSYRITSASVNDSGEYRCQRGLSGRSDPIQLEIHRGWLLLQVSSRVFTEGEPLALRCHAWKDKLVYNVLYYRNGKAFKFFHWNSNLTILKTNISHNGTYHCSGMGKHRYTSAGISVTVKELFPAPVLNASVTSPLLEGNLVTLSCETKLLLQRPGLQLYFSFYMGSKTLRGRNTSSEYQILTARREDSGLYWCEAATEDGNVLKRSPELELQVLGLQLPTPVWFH

B1: GpH7-A5/GpH7-B3 variant I336_19Q/GpL16-k0 (antibody, human IgG1, kappa)
heavy 1: not shown
heavy 2: not shown
light: DIVMTQSPLSLPVTPGEPASISCQASESLVHSNRNTYLHWYLQKPGQSPQLLIYKVSNRFSGVPDRFSGSGSGTDFTLKISRVEAEDVGVYYCSQNTHVPPTFGQGTKVEIERTVAAPSVFIFPPSDEQLKSGTASVVCLLNNFYPREAKVQWKVDNALQSGNSQESVTEQDSKDSTYSLSSTLTLSKADYEKHKVYACEVTHQGLSSPVTKSFNRGEC
notes: He Ab: mutation in one H chain only; also called He Ab
In the case of B1, the He/Con_1a in the assay with FcγRIa was 104 % of GpH7-A5/GpH7-B3/GpL16-k0. Moreover, the He/Con_2b with FcγRIIb is 58.2 % of GpH7-A5/GpH7-B3/GpL16-k0.

B2: GpH7-A5/GpH7-B3 variant S337_11K/GpL16-k0 (antibody, human IgG1, kappa)
heavy 1: not shown
heavy 2: not shown
light: B1 light
notes: as for B1
On to B2, for which the He/Con_1a with FcγRIa is 104 % of GpH7-A5/GpH7-B3/GpL16-k0. Besides, in the assay with FcγRIIb, the He/Con_2b was 94.3 % of GpH7-A5/GpH7-B3/GpL16-k0.

B3: GpH7-A5/GpH7-B3 variant Y300_02A/GpL16-k0 (antibody, human IgG1, kappa)
heavy 1: not shown
heavy 2: not shown
light: B1 light
notes: as for B1
For B3, in the assay with FcγRIa, the He/Con_1a was 112 % of GpH7-A5/GpH7-B3/GpL16-k0. Also, in the assay with FcγRIIb, the He/Con_2b is 69.2 % of GpH7-A5/GpH7-B3/GpL16-k0.

B4: GpH7-A5/GpH7-B3 variant S324_09D/GpL16-k0 (antibody, human IgG1, kappa)
heavy 1: not shown
heavy 2: not shown
light: B1 light
notes: as for B1
As for B4, in the assay with FcγRIa, the He/Con_1a was 104 % of GpH7-A5/GpH7-B3/GpL16-k0. The He/Con_2b with FcγRIIb is 85.8 % of GpH7-A5/GpH7-B3/GpL16-k0.

B5: GpH7-A5/GpH7-B3 variant S298_10E/GpL16-k0 (antibody, human IgG1, kappa)
heavy 1: not shown
heavy 2: not shown
light: B1 light
notes: as for B1
For the molecule B5, in the assay with FcγRIa, the He/Con_1a is 108 % of GpH7-A5/GpH7-B3/GpL16-k0. Moreover, in the assay with FcγRIIb, the He/Con_2b was 47.6 % of GpH7-A5/GpH7-B3/GpL16-k0.

B6: GpH7-A5/GpH7-B3 variant S324_14T/GpL16-k0 (antibody, human IgG1, kappa)
heavy 1: not shown
heavy 2: not shown
light: B1 light
notes: as for B1
With B6, the He/Con_1a with FcγRIa was 121 % of GpH7-A5/GpH7-B3/GpL16-k0. Further, the He/Con_2b with FcγRIIb is 88.4 % of GpH7-A5/GpH7-B3/GpL16-k0.

B7: GpH7-A5/GpH7-B3 variant S324_12R/GpL16-k0 (antibody, human IgG1, kappa)
heavy 1: not shown
heavy 2: not shown
light: B1 light
notes: as for B1
B7: the He/Con_1a with FcγRIa was 102 % of GpH7-A5/GpH7-B3/GpL16-k0. For the same molecule, in the assay with FcγRIIb, the He/Con_2b is 63.1 % of GpH7-A5/GpH7-B3/GpL16-k0.

B8: GpH7-A5/GpH7-B3 variant N325_11K/GpL16-k0 (antibody, human IgG1, kappa)
heavy 1: not shown
heavy 2: not shown
light: B1 light
notes: as for B1
For B8, the He/Con_1a with FcγRIa is 80.9 % of GpH7-A5/GpH7-B3/GpL16-k0. Besides, the He/Con_2b in the assay with FcγRIIb was 10.4 % of GpH7-A5/GpH7-B3/GpL16-k0.

B9: GpH7-A5/GpH7-B3 variant S298_15Y/GpL16-k0 (antibody, human IgG1, kappa)
heavy 1: not shown
heavy 2: not shown
light: B1 light
notes: as for B1
Turning to B9, in the assay with FcγRIa, the He/Con_1a is 107 % of GpH7-A5/GpH7-B3/GpL16-k0. For the same molecule, in the assay with FcγRIIb, the He/Con_2b was 61.4 % of GpH7-A5/GpH7-B3/GpL16-k0.

B10: GpH7-A5/GpH7-B3 variant S324_20W/GpL16-k0 (antibody, human IgG1, kappa)
heavy 1: not shown
heavy 2: not shown
light: B1 light
notes: as for B1
In the case of B10, the He/Con_1a with FcγRIa is 114 % of GpH7-A5/GpH7-B3/GpL16-k0. The He/Con_2b with FcγRIIb is 87.5 % of GpH7-A5/GpH7-B3/GpL16-k0.

B11: GpH7-A5/GpH7-B3 variant N325_02A/GpL16-k0 (antibody, human IgG1, kappa)
heavy 1: not shown
heavy 2: not shown
light: B1 light
notes: as for B1
For B11, the He/Con_1a in the assay with FcγRIa was 96.8 % of GpH7-A5/GpH7-B3/GpL16-k0. In the assay with FcγRIIb, the He/Con_2b was 64.4 % of GpH7-A5/GpH7-B3/GpL16-k0.

B12: GpH7-A5/GpH7-B3 variant Y300_03V/GpL16-k0 (antibody, human IgG1, kappa)
heavy 1: not shown
heavy 2: not shown
light: B1 light
notes: as for B1
B12: in the assay with FcγRIa, the He/Con_1a was 117 % of GpH7-A5/GpH7-B3/GpL16-k0. Besides, the He/Con_2b with FcγRIIb was 73.9 % of GpH7-A5/GpH7-B3/GpL16-k0.

B13: GpH7-A5/GpH7-B3 variant S298_14T/GpL16-k0 (antibody, human IgG1, kappa)
heavy 1: not shown
heavy 2: not shown
light: B1 light
notes: as for B1
As for B13, the He/Con_1a with FcγRIa was 107 % of GpH7-A5/GpH7-B3/GpL16-k0. The He/Con_2b in the assay with FcγRIIb was 77.9 % of GpH7-A5/GpH7-B3/GpL16-k0.

B14: GpH7-A5/GpH7-B3 variant S298_09D/GpL16-k0 (antibody, human IgG1, kappa)
heavy 1: not shown
heavy 2: not shown
light: B1 light
notes: as for B1
On to B14, for which the He/Con_1a with FcγRIa is 106 % of GpH7-A5/GpH7-B3/GpL16-k0. Moreover, the He/Con_2b in the assay with FcγRIIb is 48.3 % of GpH7-A5/GpH7-B3/GpL16-k0.

B15: GpH7-A5/GpH7-B3 variant S324_18N/GpL16-k0 (antibody, human IgG1, kappa)
heavy 1: not shown
heavy 2: not shown
light: B1 light
notes: as for B1
For B15, in the assay with FcγRIa, the He/Con_1a is 116 % of GpH7-A5/GpH7-B3/GpL16-k0. Besides, the He/Con_2b with FcγRIIb was 81.1 % of GpH7-A5/GpH7-B3/GpL16-k0.

B16: GpH7-A5/GpH7-B3 variant S298_18N/GpL16-k0 (antibody, human IgG1, kappa)
heavy 1: not shown
heavy 2: not shown
light: B1 light
notes: as for B1
B16: the He/Con_1a with FcγRIa is 108 % of GpH7-A5/GpH7-B3/GpL16-k0. Besides, the He/Con_2b with FcγRIIb was 48.1 % of GpH7-A5/GpH7-B3/GpL16-k0.

B17: GpH7-A5/GpH7-B3 variant S324_02A/GpL16-k0 (antibody, human IgG1, kappa)
heavy 1: not shown
heavy 2: not shown
light: B1 light
notes: as for B1
As to B17, the He/Con_1a in the assay with FcγRIa was 103 % of GpH7-A5/GpH7-B3/GpL16-k0. For the same molecule, the He/Con_2b with FcγRIIb was 78.3 % of GpH7-A5/GpH7-B3/GpL16-k0.

B18: GpH7-A5/GpH7-B3 variant S337_19Q/GpL16-k0 (antibody, human IgG1, kappa)
heavy 1: not shown
heavy 2: not shown
light: B1 light
notes: as for B1
For the molecule B18, the He/Con_1a in the assay with FcγRIa was 105 % of GpH7-A5/GpH7-B3/GpL16-k0. The He/Con_2b with FcγRIIb was 99.7 % of GpH7-A5/GpH7-B3/GpL16-k0.

B19: GpH7-A5/GpH7-B3 variant Y300_05P/GpL16-k0 (antibody, human IgG1, kappa)
heavy 1: not shown
heavy 2: not shown
light: B1 light
notes: as for B1
For B19, in the assay with FcγRIa, the He/Con_1a is 60.2 % of GpH7-A5/GpH7-B3/GpL16-k0. Also, the He/Con_2b with FcγRIIb was 7.3 % of GpH7-A5/GpH7-B3/GpL16-k0.

B20: GpH7-A5/GpH7-B3 variant S337_12R/GpL16-k0 (antibody, human IgG1, kappa)
heavy 1: not shown
heavy 2: not shown
light: B1 light
notes: as for B1
On to B20, for which the He/Con_1a in the assay with FcγRIa is 106 % of GpH7-A5/GpH7-B3/GpL16-k0. Besides, the He/Con_2b with FcγRIIb was 99.5 % of GpH7-A5/GpH7-B3/GpL16-k0.
